{
  "source": "patent US12116387B2",
  "about": "“Antimicrobial peptides” (priority 2021, dated 2024)",
  "key": {"[1]": {"test_system": "human red blood cells (hRBCs)", "assay": "Cytotoxicity / hemolysis against human red blood cells", "assay_type": "cell-based", "conditions": "hRBCs", "experimental": "(§1) Once the mechanisms by which the peptide targeted bacterial cells was elucidawted, the effect of the pentapeptide motif insertion on cytotoxicity against mammalian cells was evaluated."}, "[2]": {"test_system": "murine macrophages monocytes (RAW 264.7)", "assay": "Cytotoxicity against RAW 264.7 cells (MTT)", "assay_type": "cell-based", "conditions": "RAW 264.7 (Table 2)"}, "[3]": {"test_system": "different human and murine cell lines", "assay": "Hemolysis and cytotoxicity, text summary over the cell lines of Table 2", "assay_type": "cell-based", "conditions": "range over cell lines", "experimental": "as §1"}, "mice": {"test_system": "mice", "method": "Therefore, the anti-infective activity of mast-MO was then tested in pre-clinical mouse models. First, the toxicity of a single dose of either mast-L or mast-MO administered peritoneally to mice was assessed in order to determine the range of concentrations to be used in subsequent animal experiments. The hemolytic activity of mast-MO (up to 200 μmoL^−1) against murine red blood cells (Table 6) was also tested prior to conducting animal experiments.\nSystemic bacterial infection mouse model. Acute toxicity assay was performed based on the work of Navon-Venezia and co-workers (46). The experiment was performed by intraperitoneal (i.p.) injection of the tested peptides to groups of 10 C57BL/6 mice. Each mouse was injected with a 0.5 mL solution of freshly prepared of peptides in PBS. The doses of peptide administered per mouse were 0, 10, 30, 50, 70 and 90 mg Kg^−1 of body weight. Animals were directly inspected for adverse effects for 6 h, and mortality was monitored for 7 days thereafter. Differences between groups were analysed using the Fisher exact test (differences were considered to be statistically significant when the P value was <0.05). Briefly, E. coli ATCC8739 and E. coli 1812446 or S. aureus ATCC 29213 and S. aureus (MRSA) ATCC33591 were plated on tryptic soy agar plus 5% sheep blood (blood agar, Himedia, India) from a frozen stock. Following 24 h of incubation of the agar plate, three isolated colonies were transferred to 1 mL of BHI. The broth culture was incubated overnight (12-16 h) at 37° C. with shaking. […] Mice were challenged with either strain of E. coli ATCC8739 and E. coli 1812446 or S. aureus ATC29213 and S. aureus (MRSA) ATCC33591 in a final volume of 200 μL of PBS by intraperitoneal injection (i.p.). The day of challenge was designated as day 1 of the experiment. Three hours after bacterial injection, mice (n=5) were treated, intraperitoneally, with different concentrations of peptides (1, 5 or 10 mg Kg^−1), LL-37, gentamicin and 10 mg Kg^−1 of imipenem or PBS for 8 days. For bacterial load evaluation, 5 mice per group were used. Animals were humanely killed 24 h after bacterial administration. To detect bacterial colonization, the peritoneal lavage samples were collected under sterile conditions. The peritoneal lavage was obtained by washing the cavity with 5 mL of sterile PBS. Samples were diluted serially, and 100 μL of each dilution was spread in duplicate on appropriate agar plates for the count of developed colonies. Cytokine levels (i.e., IFN-γ, IL-6, IL−10, IL−12p70 and TNF-α) in the peritoneal lavage of the mice both in the absence and presence of peptide treatment were quantified by ELISA (Peprotech, USA) according to the manufacturer's instructions."}, "IL-12, TNFα, IL-6": {"test_system": "IL-12, TNFα, IL-6", "assay": "Cytokines in peritoneal fluid of infected mice (ELISA)", "assay_type": "in vivo, C57BL/6 mice", "conditions": "tracked for 48 h; mast-MO 10 mg Kg^−1, mast-L 5 mg Kg^−1", "method": "[…] PBS and imipenem (10 mg Kg^−1) were used as negative and positive controls, respectively. Data were expressed as mean±standard deviation. Statistical analysis was performed using Bonferroni test. ***p<0.001 as significant compared to the control.\nTo test whether the FLPII motif within the mast-MO sequence led to increased immunomodulatory and chemotactic properties with respect to mast-L, ELISA experiments were performed using the peritoneal fluid collected from mice (FIG. 5a). C57BL/6 mice were infected with both Gram-negative and Gram-positive pathogens and administered either mast-L or mast-MO intraperitoneally. For mice infected with E. coli ATCC8739, we monitored the peritoneal cavity to detect and quantify the release and presence of several immune mediators (FIG. 4E). […] This effect was similar to the positive control group of mice treated with […] (TGA) (FIG. 4B). […] After 24 h, the leukocyte recruitment levels in mast-MO-treated mice dropped to ˜10^6, likely attributed to the resolution of the infection by the peptide (FIGS. 5B and 5C). […] We monitored, via ELISAs, the cytokine profiles present within the peritoneal cavity of mice infected with E. coli ATCC8739 and S. aureus ATCC29213 (FIGS. 4E and FIG. 4F, respectively) and treated with a single dose of peptide. […]"}, "S. aureus ATCC29213": {"test_system": "S. aureus ATCC29213", "assay": "Systemic sepsis infection mouse model, S. aureus ATCC29213", "assay_type": "in vivo", "conditions": "5 mg Kg^−1 i.p.", "method": "FIG. 5A-5I pertains to a study of the anti-infective activity of mast-MO against Gram-negative and Gram-positive pathogens in a lethal sepsis infection model. In FIG. 5A mice were infected with bacteria, treated with each peptide or antibiotic and monitored for 8 days. Survival and cell counts after 24 h, respectively, are shown for E. coli ATCC8739 (2×10^4 CFU/mL inoculum) FIG. 5B and FIG. 5C, S. aureus ATCC29213 (2×10^9 CFU/mL inoculum) FIG. 5D and FIG. 5E, E. coli 1812446 (KPC-positive) (2×10^4 CFU inoculum) FIG. 5F and FIG. 5G, and S. aureus (MRSA) ATCC33591 (2×10^9 CFU inoculum) FIG. 5H and FIG. 5I. Mice were treated intraperitoneally (i.p.) with 1, 5 and 10 mg Kg^−1 of mast-L, mast-MO or 10 mg Kg^−1 of the antibiotics gentamicin and imipenem. PBS was used as a control for the untreated group of mice. Treatments were administered 3 h post-infection. Data are expressed as the mean±standard deviation. Statistical analysis was performed using Bonferroni test. […], **p<0.01, ***p<0.001 compared to the untreated control.\nSystemic bacterial infection mouse model. […] Animals were humanely killed 24 h after bacterial administration."}},
  "note": "Where two headings read alike, the source gives them in different places.",
  "data": [
    {"sequence": "NLKALAALAKKIL [Mast-L]", "values": [
      {"measurement": "Cytotoxic activity, Peptide Concentration", "setting": "[1]", "value": 7, "unit": "µmol/L"},
      {"measurement": "Cytotoxic activity, Peptide Concentration", "setting": "[2]", "value": 10, "unit": "µmol/L"},
      {"measurement": "Concentration hemolytic and toxic towards human and murine cell lines", "setting": "[3]", "value": "7 to 50", "unit": "µmol⁻¹"},
      {"measurement": "Gross toxicity, number of mice (TL)", "setting": "mice; Dose 5 mg Kg^−1, five mice per group", "value": "2 (TL-1)"},
      {"measurement": "Gross toxicity, number of mice (TL)", "setting": "mice; Dose 10 mg Kg^−1, five mice per group", "value": 5},
      {"measurement": "Dose above which highly toxic in preliminary mouse experiments", "setting": "mice; single dose, peritoneally", "value": "higher than 10 mg Kg^−1"},
      {"measurement": "Pro-inflammatory cytokines IL-12, TNFα and IL-6 in the peritoneal cavity", "setting": "IL-12, TNFα, IL-6", "value": "repressed"},
      {"measurement": "Survival", "setting": "S. aureus ATCC29213", "value": 80, "unit": "%"}
    ]}
  ]
}
